Data as given in publication PMC3418449.
Read-outs that look alike come from different tables or passages of the source.

Columns and labels:
[1] = target: T1, GRK2 (S670A), flow cytometry and crystallography (bovine, UniProt P21146 1-689, S670A); assay: competition
[2] = target: T1, GRK2 (S670A), flow cytometry and …; assay: flow cytometry bead binding
[3] = target: T1, GRK2 (S670A), flow cytometry and …; assay: competition; remark: listed apart in the source
[4] = target: T1, GRK2 (S670A), flow cytometry and …; assay: competition; remark: listed apart in the source
[5] = target: T1, GRK2 (S670A), flow cytometry and …; assay: flow cytometry bead binding; remark: listed apart in the source
[6] = target: GRK2-H280A, flow cytometry (UniProt P21146 1-689, H280A); assay: flow cytometry bead binding
GRK2-H280A, flow cytometry, sequence (P21146 whole entry H280A): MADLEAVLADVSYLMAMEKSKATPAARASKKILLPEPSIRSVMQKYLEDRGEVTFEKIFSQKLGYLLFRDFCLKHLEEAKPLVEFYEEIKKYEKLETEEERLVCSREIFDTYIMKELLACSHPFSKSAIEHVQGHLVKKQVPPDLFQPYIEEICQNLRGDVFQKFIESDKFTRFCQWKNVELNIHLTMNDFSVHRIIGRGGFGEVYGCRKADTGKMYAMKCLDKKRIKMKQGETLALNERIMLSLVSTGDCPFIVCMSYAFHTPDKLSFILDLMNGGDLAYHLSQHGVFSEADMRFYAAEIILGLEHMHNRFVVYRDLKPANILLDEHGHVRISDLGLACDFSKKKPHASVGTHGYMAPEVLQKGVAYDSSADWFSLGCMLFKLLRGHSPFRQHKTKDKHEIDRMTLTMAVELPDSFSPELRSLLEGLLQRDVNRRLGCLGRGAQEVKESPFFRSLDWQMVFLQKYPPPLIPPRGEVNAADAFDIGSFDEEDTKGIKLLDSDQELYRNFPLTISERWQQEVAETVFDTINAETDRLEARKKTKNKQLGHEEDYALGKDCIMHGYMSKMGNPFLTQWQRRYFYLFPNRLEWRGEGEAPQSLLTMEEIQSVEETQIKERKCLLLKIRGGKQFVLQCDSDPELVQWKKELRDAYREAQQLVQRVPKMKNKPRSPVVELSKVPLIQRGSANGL

[7] = target: GRK2-D335A, flow cytometry (UniProt P21146 1-689, D335A); assay: flow cytometry bead binding
GRK2-D335A, flow cytometry, sequence (P21146 whole entry D335A): as the sequence (P21146 whole entry H280A) above, with A280H, D335A counted along it

[8] = target: T1, GRK2 (S670A), flow cytometry and …; assay: flow cytometry bead binding; remark: listed apart in the source
[9] = target: GRK2-FG-6A, flow cytometry (UniProt P21146 1-689, R392A;H394A;K395A;K397A;K399A;H400A); assay: competition
GRK2-FG-6A, flow cytometry, sequence (P21146 whole entry R392A/H394A/K395A/K397A/K399A/H400A): as the sequence (P21146 whole entry H280A) above, with A280H, R392A, H394A, K395A, K397A, K399A, H400A counted along it

[10] = target: GRK6 palmitoylation-deficient (human, UniProt P43250 1-576, C561S;C562S;C565S); assay: competition
GRK6 palmitoylation-deficient, sequence (P43250 whole entry C561S/C562S/C565S): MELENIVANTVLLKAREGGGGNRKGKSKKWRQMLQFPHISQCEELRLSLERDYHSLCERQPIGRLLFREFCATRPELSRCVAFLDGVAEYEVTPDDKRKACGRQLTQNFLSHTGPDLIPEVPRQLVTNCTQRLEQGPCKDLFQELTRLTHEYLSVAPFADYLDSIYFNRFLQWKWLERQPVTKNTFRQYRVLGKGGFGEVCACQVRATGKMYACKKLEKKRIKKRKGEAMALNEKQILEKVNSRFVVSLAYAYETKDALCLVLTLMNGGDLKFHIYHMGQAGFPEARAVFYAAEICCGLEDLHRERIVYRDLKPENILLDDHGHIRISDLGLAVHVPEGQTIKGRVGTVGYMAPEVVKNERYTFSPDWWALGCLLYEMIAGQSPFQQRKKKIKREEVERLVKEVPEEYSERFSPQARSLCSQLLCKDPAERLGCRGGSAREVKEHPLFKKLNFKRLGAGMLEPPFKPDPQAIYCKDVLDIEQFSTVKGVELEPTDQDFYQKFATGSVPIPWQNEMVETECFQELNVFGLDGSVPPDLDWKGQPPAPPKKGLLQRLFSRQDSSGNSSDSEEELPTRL

[11] = target: T1, GRK2 (S670A), flow cytometry and …; assay: competition; remark: listed apart in the source
[12] = target: T2, GRK1 truncated at residue 535 (bovine, UniProt P28327 1-535); assay: competition
T2 sequence: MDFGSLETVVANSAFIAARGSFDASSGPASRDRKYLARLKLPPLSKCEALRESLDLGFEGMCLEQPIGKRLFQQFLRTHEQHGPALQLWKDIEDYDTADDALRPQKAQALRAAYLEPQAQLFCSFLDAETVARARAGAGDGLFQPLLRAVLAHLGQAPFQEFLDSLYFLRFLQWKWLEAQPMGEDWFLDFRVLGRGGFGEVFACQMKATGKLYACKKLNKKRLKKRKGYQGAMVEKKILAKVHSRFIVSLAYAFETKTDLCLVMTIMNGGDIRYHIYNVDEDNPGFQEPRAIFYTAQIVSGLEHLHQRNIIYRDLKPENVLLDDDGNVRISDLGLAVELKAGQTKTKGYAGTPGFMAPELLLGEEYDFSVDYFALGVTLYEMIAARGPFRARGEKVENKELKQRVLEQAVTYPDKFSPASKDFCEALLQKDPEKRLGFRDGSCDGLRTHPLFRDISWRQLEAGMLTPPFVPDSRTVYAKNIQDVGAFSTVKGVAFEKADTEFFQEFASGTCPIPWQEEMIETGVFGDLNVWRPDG

T1 sequence (P21146 whole entry S670A): as the sequence (P21146 whole entry H280A) above, with A280H, S670A counted along it

GGCAGACCAUCCGGGAGAGAAACUUGCC (structured_RNA) [C13.28A51C]: no binding [1].

With CCAUACGGGAGAGAAACU (ssRNA) [C13.18] the Kd [2] was 35 ± 5 nM and the IC50 [3] was 100 ± 41 nM.

GGGUAGCACAGACCAUACGGGAGAGAAACUUGUGCAACCC (structured_RNA) [C13.40] was tested, and the IC50 [4] was 1.3 ± 0.1 nM.

With GGCAGACCAUACGGGAGAGAAACUUGCC (ssRNA) [C13.28] the IC50 [4] was 1.5 ± 0.1 nM, the Kd [5] was 1.2 ± 0.6 nM and the binding result [6] was “binds”. The binding result [7] was “binds”, the Kd [8] was 3.8 ± 1.2 nM and the IC50 [9] was 510 ± 170 nM. The IC50 [10] was 210 ± 10 nM, the IC50 [11] was 3.3 ± 0.3 nM and the IC50 [12] was 590 ± 160 nM. The IC50 [3] was 0.44 ± 0.19 nM.

For GGCGACCAUACGGGAGAGAAACUGCC (structured_RNA) [C13.26], the IC50 [4] was 0.9 ± 0.03 nM.

Work on GGGCAGACCAUACGGGAGAGAAACUUGCC (structured_RNA) [C13.29] yielded an IC50 [4] of 0.91 ± 0.07 nM.

AGACCAUACGGGAGAGAAACUU (structured_RNA) [C13.22] was tested, and the IC50 [4] was 46 ± 9 nM.
